Reference: the supplement of paper PMC12855868

B1: library; numbered along this chain (parent)
chain: MAAAGGARLLRAASAVLGGPAGRWLHHAGSRAGSSGLLRNRGPGGSAEASRSLSVSARARSSSEDKITVHFINRDGETLTTKGKVGDSLLDVVVENNLDIDGFGACEGTLACSTCHLIFEDHIYEKLDAITDEENDMLDLAYGLTDRSRLGCQICLTKSMDNMTVRVPETVADARQSIDVGKTS

Variants of: B1
Test: scaled log2 fold change in cell abundance, elesclomol vs control (0 = silent mean, 1 = nonsense mean) (scaled log2 ratio); higher = higher viability under elesclomol (loss of FDX1 cuproptosis function)
Details: glucose 10 mM
[1] = with HEK293T FDX1 KO, elesclomol 40 nM, 11 days
[2] = with ABC1 FDX1 KO, elesclomol 5 nM, 14 days
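Also: variant abundance is its share of total variant reads in each endpoint sample, from next-generation sequencing of the integrated ORF PCR-amplified out of genomic DNA.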

Variant	scaled log2 fold change [1]	scaled log2 fold change [2]
L127C	0.0207	
S30W	-0.103	
S30P	-0.513	
S50V	-0.0587	
S50F	-0.396	
A129N	0.865	
R31L	-0.385	
R31D	0.39	
T157W	-0.456	
R60D	0.0454	
D173I	0.102	
R51I	0.315	
D75G	0.0557	
D75P	-0.0681	
S61H	1.68	
S61A	0.782	
S61L	0.17	
S61T	0.136	
T78F	-0.765	
T78A	-1.2	
P20V	0.328	
P20R	0.465	
L37I	1.2	
L37A	0.765	
L37N	-0.668	
T183M	-0.119	-0.197

Variant	scaled log2 fold change [1]	scaled log2 fold change [2]
T183G	-1.07	0.353
T183V	-0.191	0.00691
T183K	-0.436	-0.157
T183Y	0.0186	-0.296
T183H	-0.49	-0.16
T183L	-0.253	-0.0402
T183S	-0.869	0.172
T183W	0.214	-0.19
T183D	-0.222	0.0532
T183C	-0.686	0.0469
T183E	-0.187	-1.02
T183F	-0.199	0.0658
T183A	-0.711	-0.44
T183N		-0.0614
T183P		0.166
T183R	-0.367	0.102
T183I	-0.426	0.0224
T183Q		-0.0766
N40H	-0.707	
N40G	-0.0433	
N40A	1.14	
S184M	0.661	0.00413
S184F	-0.432	0.3
S184P	0.83	0.326
S184V	0.648	0.362
S184I	-0.259	0.126

Variant	scaled log2 fold change [1]	scaled log2 fold change [2]
S184T	-0.512	-0.0663
S184D	0.845	-0.159
S184K	0.0933	-0.0652
S184Q	-0.0365	-0.0164
S184W	0.713	0.0507
S184E	1.03	-0.0286
S184N	0.0759	0.136
S184Y	0.879	-0.125
S184R	-0.427	0.0521
S184A	0.908	0.168
S184G	-0.25	0.207
S184H	-0.0277	0.0751
S184L	0.57	-0.241
S184C		0.145
G29H	-0.53	
G29N	1.01	
G29Q	0.00954	
G29L	0.376	
A21W	0.402	
W24D	-0.665	
W24S	-0.637	
W24Y	0.0942	
L9A	0.241	
E125I	-0.618	
E107S	-0.279	
L89I	-0.0352	

Variant	scaled log2 fold change [1]	scaled log2 fold change [2]
G33D	0.213	
V16H	0.416	
A15R	-0.519	
S62P	0.152	
S62V	-0.946	
S14N	0.029	
V55A	-0.0113	
K182P		0.201
K182E	-1.19	-0.363
K182G		0.289
K182I	0.677	0.114
K182N	0.75	0.127
K182D		0.0891
K182R	0.0141	-0.345
K182M	-0.0296	-0.000782
K182S	-0.584	0.0077
K182Y	-0.398	0.0751
K182C	-0.334	-0.0381
K182L	0.171	-0.0698
K182A	-0.691	0.0976
K182Q	-0.145	0.399
K182V	0.182	-0.251
K182T	-0.0291	0.134
K182H	-0.354	-0.181
K182F	-0.11	0.103
K182W	0.909	0.0276

Variant	scaled log2 fold change [1]	scaled log2 fold change [2]
V180M	0.491	0.313
V180N	-0.0838	0.00503
V180L	-0.104	-0.0572
V180K	0.164	-0.341
V180Q	-0.00162	0.0492
V180T	-0.33	0.143
V180W	0.322	-0.111
V180G	-0.341	0.144
V180F	0.0689	0.0635
V180H	1.19	-0.37
V180P	0.824	-1.19
V180S	-1.45	-0.754
V180R	-0.285	-0.02
V180I		0.213
V180Y	0.873	-0.084
P168G	-0.0258	
G22S	1.21	
G22D	0.368	
S88P	-0.895	
S88D	0.11	
S88M	0.379	
S88K	-0.315	
S88H	-0.0956	
G76W	-0.575	
L25F	0.845	
G181T	-0.186	0.225

Variant	scaled log2 fold change [1]	scaled log2 fold change [2]
G181F	0.167	0.316
G181P	-0.548	-0.164
G181R	0.814	-0.0624
G181Y	-0.568	0.093
G181A	-0.352	-0.623
G181S	0.902	0.113
G181C	-0.501	-0.0449
G181D	-0.438	0.217
G181H	0.112	-0.157
G181V		-0.396
G181Q	-0.21	-0.419
G181L		0.185
G181I	0.0446	0.268
G181K	-0.659	0.227
G181M	0.389	-1.35
G181W	0.364	0.226
G181E	-0.4	-0.223
G181N		0.125
V171G	0.349	
H26I	0.477	
H26V	0.418	
A57P	-0.118	
A4P	-0.59	
